The target of assay [1] is human CD40 on the cell surface (human) (UniProt P25942). The assay can be described thus: flow cytometry on Raji cells, AF647 anti-human IgG detection. On the technique in general: Flow cytometry measures light scatter and fluorescence of single cells or particles in a stream.
The target in assay [2] is his-tagged human CD40 (h-CD40-his) recombinant protein (human) (UniProt P25942). Kind of assay: SPR (Biacore), antibody captured on anti-human Fc chip, His-tagged CD40 as analyte, 1:1 model. For orientation: In SPR one partner is held on a chip, and binding of the other changes the refractive index at the surface.
For assay [3], the target named is human CD40 on the cell surface (human) (UniProt P25942). Kind of assay: flow cytometry on Raji cells, Alexa Fluor 488 anti-human IgG (H+L) detection.
The target is the same in assay [4]. The assay can be described thus: cell-based or functional assay.

Chain of his-tagged human CD40 (h-CD40-his) recombinant protein (human) (P25942 21-193 limits assumed): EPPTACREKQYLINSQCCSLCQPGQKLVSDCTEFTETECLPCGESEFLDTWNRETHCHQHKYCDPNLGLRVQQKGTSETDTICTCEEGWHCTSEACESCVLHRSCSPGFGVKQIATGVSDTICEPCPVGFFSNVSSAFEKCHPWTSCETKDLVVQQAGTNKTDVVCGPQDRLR
Chain of human CD40 on the cell surface (human) (P25942 21-277): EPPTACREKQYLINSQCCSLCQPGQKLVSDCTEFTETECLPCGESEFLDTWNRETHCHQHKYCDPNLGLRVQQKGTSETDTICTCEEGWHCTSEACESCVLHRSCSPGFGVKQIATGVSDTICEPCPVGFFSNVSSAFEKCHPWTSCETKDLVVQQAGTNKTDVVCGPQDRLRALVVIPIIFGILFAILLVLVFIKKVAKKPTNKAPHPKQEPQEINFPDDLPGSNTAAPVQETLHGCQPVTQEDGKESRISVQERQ

“anti-CD40 antagonistic antibody CFZ533 (iscalimab)”: in assay [1], the EC50 was 2.41 nM. Further, in assay [2], the Kd was determined as 0.205 nM, the koff amounted to 0.000141 s⁻¹ and the kon was determined as 688000 M⁻¹ s⁻¹. Further, the EC50 in assay [3] was determined as 1.01 nM. In assay [4], the B cell activation assay, CD19+CD69+ % IC50 came out at 0.14 nM; the B cell activation assay, CD19+CD69+ % Maximum inhibition rate was 95%; the B cell activation assay, CD19+CD69+ MFI IC50 was 0.07 nM; the B cell activation assay, CD19+CD69+ MFI Maximum inhibition rate came to 110%. In addition, in assay [4], the IC50 for the inhibition of CD40 reporter gene cell activity (Assay 1) amounted to 0.36 nM; the IC50 for the inhibition of CD40 reporter gene cell activity (Assay 2) turned out to be 0.35 nM; the IC50 in DC cell activation assay system, CD80 MFI was 1.19 nM; the IC50 in DC cell activation assay system, CD86 MFI is 1.93 nM. Besides, in assay [4], the IC50 in DC cell activation assay system, IL-12/23 p40 was 0.68 nM; the IC50 in DC cell activation assay system, TNFα was determined as 0.35 nM; the reporter gene cell activity IC50 (HEK-Blue CD40L cells, SEAP) came out at 0.272 nM.

In general, EC50 refers to the concentration that produces a half-maximal response. A higher EC50 goes with a need for much substance. A word on the Kd: it is the constant that tells how readily two partners part at equilibrium. By koff is commonly meant the rate constant with which the complex falls apart. One may read the kon as a measure of how fast the partners come together.
